Test results as given in US10464976B2, “Amyloid β(1-42) oligomers, derivatives thereof and antibodies thereto, methods of preparation thereof and use thereof” (AbbVie Deutschland GmbH & Co. KG, priority 2003, dated 2019).
Read-outs that look alike come from different tables or passages of the source. Where no end group is shown, it is not given here.

Tests used:
[1] = Stability of Aβ(1-42) oligomers B in physiological buffers (SDS PAGE); assay type: physicochemical
Experimental: The Aβ(1-42) oligomers B obtained according to example 6b are tested for stability in PBS buffer under the following conditions.
5 mg/ml are diluted with PBS in 2× dilution steps down to 0.08 mg/ml. All solutions obtained are incubated at room temperature for 24 hours. This was followed by analyzing the band pattern in an SDS PAGE in comparison with a frozen control preparation.
The Aβ(1-42) oligomers B obtained according to example 6b are diluted to 0.5 mg/ml with PBS buffer and incubated at room temperature or at 37° C. for 24 h or 96 h.
Subsequently, the band pattern was analyzed in an SDS PAGE.

murine cortical neurons = assay: Neurotoxic action on murine cortical neurons (LDH release); assay type: cell-based; conditions: 24 h, various final concentrations, n=12
Experimental: Murine cortical neurons are prepared and cultured as a mixed culture with glia cells following the literature (Choi et al. (1987) J. Neurosci. 7, 357-368). The cortices of embryos on days 14-15 of development are mechanically removed from the meninges and lower brain regions. The cells are separated from one another by incubation in a 0.05% strength trypsin solution at 37° C. for 5-7 minutes and subsequently pipetting said solution several times through a pasteur pipette with reduced opening. After determining the number of cells, 430 000 cells are seeded in 0.5 ml of maintenance medium (minimum essential medium containing 0.8 mM glutamine, 18 mM glucose, 23 mM NaHCO3 and 10% of horse serum) per 2 cm^2 on cell culture material coated with poly-L-ornithine and laminine. Cultivation and later incubations of the cells are carried out in a humidified cell culture incubator at 37° C., 5% CO2. […] The cell culture supernatants are removed after 24 h, the remaining cells are destroyed by incubation in distilled water for 20 minutes and the activity of the enzyme lactate dehydrogenase (LDH) is determined enzymatically in both solutions. For evaluation, the ratio of the LDH activity of the cell culture supernatants to the sum of the LDH activities of supernatant and remaining cells is determined and the average of the quadruple determinations is formed. […]

[2] = rat
[3] = rat, in vivo; for Aβ(1-42) detected in brain extract: 10 nmol
[4] = Detection of Aβ(1-42) oligomers B in rat brain homogenates after icv administration; conditions: Western blot, after 2 hours
[5] = system: rat primary hippocampal neurons; assay: Binding to rat primary hippocampal neurons (immunofluorescence); assay type: cell-based; conditions: 200 nM, 37° C., 15 minutes, detection with 6E10 and Cy3 second antibody
Experimental: The binding of rat Aβ(1-42) oligomers B of example 5b to rat primary hippocampal neurons was studied. The hippocampal neurons were cultured in neurobasal medium with B27 supplement on poly-L-lysine-coated cover slips and used on day 14 of the culture. The oligomers were bound to the cell membrane of the neurons by adding 200 nM (total monomeric Aβ concentration) oligomers to fresh culture medium and incubating at 37° C. for 15 minutes. After removing the Aβ-containing medium, two washing steps with medium were carried out and the cells were then fixed in 3.7% formaldehyde. After further washing of the cells, unspecific binding sites were blocked with 10% normal donkey serum in PBS buffer at room temperature for 90 min. 6E10 (from mouse) was applied as the first antibody in a 1:2000 dilution at room temperature for 2 h. The cells were washed again and incubated with the second antibody (from donkey) which is directed against mouse and which is coupled to the fluorescent dye Cy3, at room temperature for 2 h. After the cells had been washed again, the cover slips containing the neurons were fixed to a slide with embedding medium. The hippocampal neurons with bound Aβ oligomers were depicted in a fluorescent microscope. The control used was a mixture in which the first antibody 6E10 had been omitted.

Substance	band pattern in SDS PAGE ([1]; 0.5 mg/ml in PBS, room temperature or 37° C., 24 h or 96 h)	band pattern in SDS PAGE versus frozen control ([1]; PBS, 5 mg/ml down to 0.08 mg/ml, room temperature, 24 hours)	neurotoxicity (neuronal death, LDH) (murine cortical neurons)	biological half life in the plasma [2]	average biological half life (brain) [3]	Aβ(1-42) detected in brain extract ([3]; 0.25 h)	Aβ(1-42) detected in brain extract ([3]; 2 h)	oligomeric structure after in vivo administration (38/48 kDa bands) [4]	binding to the cell surface of the neurons [5]
Aβ(1-42) oligomers B: oligomers of human amyloid β(1-42) protein with molecular weights of 38 kDa and 48 kDa in SDS PAGE (examples 5a, 6b)	identical in all samples	identical in all samples	distinct toxic action	≥ 8 hours	about 105 min	about 0.4 nmol/g	approx. 0.2 nmol/g	oligomeric structure is still retained	
rat Aβ(1-42) oligomers B: oligomers of rat amyloid β(1-42) protein with molecular weights of 38 kDa and 48 kDa (example 5b) (DAEFGHDSGFEVRHQKLVFFAEDVGSNKGAIIGLMVGGVVIA; also: oligomers of 38 kDa and 48 kDa)									bind to the cell surface of the neurons in a dotted manner
